Assay results reported in the DeepSol protein solubility set.

Assay: soluble on expression in E. coli; label from the status in PepcDB or PDB records

Soluble on expression in E. coli, not soluble:
MGSDKIHHHHHHMFSGIAHCADCGSKLYYCTTRYFETRHDHFRCSASQKAVDPCTSHFIRAVVLEEMVLAHMRYVIGFVQRYEDSFRVSIEAERSTEIQKELSAKRKQIAQSQKRVDDLDVLFRKVYEDNASGKLTDERFMQLSRGYDLEQKTLRQMITMLEKEIDQQEQKTTQVEDFIAKCKRYSSLETLTPAILNDLVIKVFVEAPDKSTGKRRQGIHISYNLVGILPPLERFQPVVVERPNKEKAETA, MGSDKIHHHHHHMFVSPMLLHSIKEPFNDENYITELKFDGIRLILSKFDNQIKLYTRHNNEVTSKFPELMDLDIPDGTVLDGEVIVAASGGAPDFEAVMERFMSKKSAHNIVYCVFDVIYKDGQSIAAKPLTERKTVLNSLELDHPNVFVIEGTQGNGLAYFNLAKEKNLEGIVIKKANSPYEINKRSHNWLKVINYDYTEVLITGYTKKDIKFLLSYPDGTSAGFMEFMPHAERTKFHSMKQVKSESDEYVFIEPILCNVKHRFKTKHGKLRIPSFESWRV, MGSDKIHHHHHHMFYRPEDGHGLPHNPFNAVVTPRPIGWISTRSGAGVNNLAPYSFFNAVAYVPPQVMFASTSTKDDQDGTKDSIANIRETGVFCVNVVEYAMRDAMNKTSAALDKGIDEFAHAGLEAVPCETIDCARVAGVPAALECRLTQIVDLPGEANKVAFGEVVGVHLRDDCLVDGVFDVTRYQPLSRLGYRDYAKVSDPFSLSRPDD, MGSDKIHHHHHHMGETNQQGVKNPLQTKEVAERQAKKEKQVVFIYYDHEPTYKLLEDQLVDQGDFELVSTNQSEDAVAILGSLSIDSVVFINTAKSKQMYQLYEKTSGSHHYLHAPFFYIGECSHEEMGQIFANGHEFISSPFNLETFYLKMKAKLDHCTRIKNDRQIDLVTQLYTERFLEKMFHLQVANLVRFKTSFTVIFLSLYNYYELKTKYGLTIADQIVATVSDYIKSQVRDSDLAFRMDAEDEIAVILPNGGQTEAGYFVRRVFEHIPPVTTTENGEPLQFFIELSASIVEINNADVTYEEMLEKGKEALQEAVFKGASTIETVNDFQEPNVEKIKVTVIVEDQVIRSVLVNLLQRLTLEYFELDVQTFFDGEALLESSWHRSAHTHIVIMDDVLPKRNGLEMVHELRKMPNNEKYIVMMLSNRKTEEDVTYAFEMGVDDYITKPFNVKFVESRLKRYLKRLR, MGSDKIHHHHHHMGHATEIQVLVVDESAPSRAFIASTLENGGYIVTSVASGEEAVHEVNAAPFDILVTDINLPGMSGLNLLKLLKDSFPDLEVVIVTSNASSFTAIKALRLGAYDFIIKPVDDPAILTNIVGRAVEKQSLTRENRRLMDDMKLKNRELHDALHLMKSANRLCTAISASLDAGEILKRLVEGAVEEVKAKKGYLLLLDRDGSSFSMKVSVGVSRTLAKGFRLRHDQGIAGLVATNNKPLRIDEEVPPPLTHRMLEEDPNGELFTTPGIVTVPLQFKGRVAGVVTLSGRADGRAFTDAEIEFLTTLANHSAIALDTAGAFYKLRKGTS, MGSDKIHHHHHHMGINKFNHEGYHDPTPHEALTNIMKKEKAEKKSAFKPLVYICSPYSGDVEGNIKKARSFCRFALDQNCIPIAPHLMFPQFMDDENPEERELAIFMDIVLMGKCSEVWVLGNTISTGMAREIEVAKKRRQTVRYFSPEHEEVESL, MGSDKIHHHHHHMGLSTSTKTFAERLEESKKDQFAKAAVAKAQDAQWEKRESARDELGNWQEWRDIAESIRQHTLKYLPHYLTEFSDNVAARGGHVFFAADAKEANDYVKRIVLEKNAKKIVKSKSMVTTEVDIDPMLVSLSDDMDILETDLAEFILQVADWDEPSHIVFPALHKNRDQIREIFAKKLGYEGDNNPVNLARCARDTMRKLFLKSEVGITGCNFAIANTGDINLSTNEGNADLTISIPKTQIVLMGMERIVPSIKEAEILDNMLARSAVGQKLTTYVTFAGQQADDESDGPEDFHVVIVDNGRSNAIGTAFEAVLQCIRCGACLNVCPVYRQIGGHAYGSIYPGPIGSVLSPVLGGYEQYGDLPYASTLCGACTETCPVKIPLHELLIEHRKVMEDDLSMHHDGSFVNFEMNTIGKGTSSPALFGMAINMAHTGLNMLPKAKEVSVEGSLFNYGAVRKAPALAKGWTDVRDLPIAPPHKEQFRQWYKKHKAGK, MGSDKIHHHHHHMGNKIYPIGIQNFESLRLDGYFYIDKTALIYQLVKSGRYYFLSRPRRFGKSLLISTLEAYFQGKKELFQGLAMEKLEKDWTKYPILHIDLNTQKYDSPQSLESKLNRTLVTWEKLYGSEPAEDSLSMRFEGTIQRAYEQTGQRVVILVDEYDKPMLQAIGNKELQNSFRETLKAFYGALKSKDGCIKFAMLTGVTKFGKVSVFSDLNNLDDISMWNEYIELCGISEKEIHKNLETELHEFADVQKMTYDSFCEKLRQYYDGYHFTHNSIGMYNPFSLLNAFKRKEFGSYWFETGTPTYLVELLKRHHYNLERMAHEETNAQVLNSIDSESTSPIPVIYQSGYLTIKGYDEEFGIYHLGFPNKEVEEGFIQFLVPYYTSMNNVESPFEI, MGSDKIHHHHHHMGNSVLKMMIDAGPIMRTVSLPRGRHSLHTMPTSTGYEVRSDATYDWDGRKRGQTPFTVLQHTISGAGNLRYENSTYRVTPGQTLLVLVPHNHRYWLEPGGRWEFFWISMNGEEALRIHNAILTAMGPIFNLNQQTVEHLADCSQRLIAGGAETPGRASAIAYEAAMALYDDVFGSHPTLSAEYRTMQHVIDHISANLDQSLSVEQLAAVSGLSRAHFSRVFAASEGMPPAEFVLHKRLKRAVKLLTKGSHLSVKEISTMCGFEEPNYFSKVFRRHFGASPTEFRTTGMYSSILQGGVEAETKPARFHRPDVNE, MGSDKIHHHHHHMGQRIPVTLGNIAPLAVKPFRPGKLALVCEGGGQRGIFTAGVLDEFMRAGFNPFDLMLGTSAGAQNLSAYMCNQQGYARKVITRYTTSRQFFDPMRFVRGGNLIDLDWLVEATSQQMPLAMNYAEAQFALGKELWLCACRGDDYSASYFSPTPQTWLDLIRASSAIPGFYRSGVLLDGVSYLDGGVSDAIPVQEAARRGAQTIVVIRTVPSQMFYTPQWFKRMERWLGESSLQPLVNLVHHHETTYRAIQQFIEKPPGKLRIFEIYPQRPLRSMALGSRLPALLEDYKTGRQCGRYFLATVGKLLADQPPLLRHAPRIARPAPVVVPPVPVANEAPQATIIPAPQANDPSFDHEDLA, MGSDKIHHHHHHMGREIFNRRLPDNYNDFSHSMDNAANGHYFLRVASSNYKRPDGKNVRTVRDVIAEVDQNGVVVDEWRLFDILDPYRDVIMKTLDQGAVCLNIDASQSGHTLSEEDLAALDSSDKFGDIVGSGAGRNWAHVNSVDYDSEDDSIIISSRHQSAIIKIGRDKKVKWILGTPAGWKAPFNAAILTPVDSKGQKIACQDSGCEGDFDWTWTQHTAFKIDSKSKGDILYLSAFDNGDGRGLEQPAMQSMKYSRSVIYKIDQKNKTVQQIWQYGKERGNEWFSPVTSITEYQTDKNSVFVYSATAGGAFDLSVGAFTSLPNPYLEEFKWGEKEPAVEMQIHGARGYQAMPFSLTKALTE, MGSDKIHHHHHHMGSLEQRRLEQDKRPDDVRDEYDRDEARLIHSAAFRRLQSKTQVLGLGESDFYRTRLTHSMEVAQIGRGIVQYLSKNKKFAEYHEHLPNTSLITAICLAHDIGHPPFGHGGEVALNYCMREHGGFEGNGQTLRILGKLDKYTGEHGLNPTRRMLLGILKYPVAYSELVNEKAYEQVPDKNAPYWLFEARMQKPPKCYHDCDQEIVDFIFDGFAREELAKFTQTEQPIDKDEPEKPLHKKSLYKSLDCTIMNLADNISYSLHDFEDALSLGMITQRHWREHFEGKEALFNDLAKQLVRNDLNFDLITVNLFHKESHCRKEAIGSLVNLMITNAIIEKNQSGCENPLLSLEVKLAPQIEKLRQHIFDLVCEQVIFDENVQQLEFKGQKLVIELFQTLAKDPNRFLPKPTRERLKKAGEGLEGEHKKSAQLRVICDFVSGMTDDYATKFYEKLFTPSKGSIFDRL, MGSDKIHHHHHHMGTDSEKAIPPKVSRAAAEWLVELHSGQVGKEVREQWQAWRAAHPDHERAWQHIEMLGERLGGLSSSLAHATMAPRGSLRRRRAIKTLAMLLFAGGSAWVVQEKTPWWQLSADYSTGIGEQRRIELEDGTVVDLNSSSAINVAYTQQQRILMLLRGEMHVATASESATARPFLIASDQGSVRAFGTRFVVRQLTNEKDSPIKVGVLEGAVEVAPSEMPARVRLQAGEQLSFTRHMVTPIEPVIPHDTAWLQRMLVADDMPLGEFLAELSRYRKGSLGCDHSIKHLKVSGTYPLDDTDKVIEMLQQSLNLQVRMLTRYWVRLMPPAA, MGSDKIHHHHHHMGVDPFERNKILGRGINIGNALEAPNEGDWGVVIKDEFFDIIKEAGFSHVRIPIRWSTHAYAFPPYKIMDRFFKRVDEVINGALKRGLAVVINIHHYEELMNDPEEHKERFLALWKQIADRYKDYPETLFFEILNEPHGNLTPEKWNELLEEALKVIRSIDKKHTIIIGTAEWGGISALEKLSVPKWEKNSIVTIHYYNPFEFTHQGAEWVEGSEKWLGRKWGSPDDQKHLIEEFNFIEEWSKKNKRPIYIGEFGAYRKADLESRIKWTSFVVREMEKRRWSWAYWEFCSGFGVYDTLRKTWNKDLLEALIGGDSIE, MGSDKIHHHHHHMGVIQKIKNLVTRSKYVMTTQSLTNITDHPKIAISKLEYDRITTNLKYYKSDWDSVLYLNTDGETKKRDLNHLPIARTAAKKIASLVFNEQAEIKVDDDAANEFISETLKNDRFNKNFERYLESCLALGGLAMRPYVDGDKVRVAFVQAPVFLPLQSNTQDVSSAAVVIKSVKTINGKEVYYTLIEFHEWQSSDDYVISNELYRSDDKAKVGSRVPLSEVYKDLKDEAKVTDVTRPIFTYLKTPGMNNKDINSPLGLSIFDNAKTTIDFINTTYDEFMWEVKMGQRRVAVPESLTALTVRTADGDVVPRPRFESDQNVYIRMGGRDLDSSAIQDLTTPIRADDYIKAINEGLSLFEMQIGVSAGLFSFDGKSMKTATEIVSENSDTYQMRNSIVTLVEQSLKELVISIFEIAKAYDLYQSEVPSMDNISISLDDGVFTDRDAELDYWIKVVNAGFGTREMAIQKVLNVTEEKAQEIAAEINTGIVDEINQQRTDTHLYGE, MGSDKIHHHHHHMGVRQKKIAAHDLEIGMFVSDLDRPWHQTPFPIQGFYLRSENDLKAVVSHCKWVMIDVAETREEITLGSDKVRPFARRSSARSGGREELQLAPLSIREPVVYKNDVPLRKELKASRKLLNDAELALSRMFETIRDDQMPDLRPAAEVTRRMVESVIRQPNALLWLSRTRQYDDFVYRHALNTAVWALVCGRQLGLNEGLLNHLGVGCLLSQVGKTALPKEMLAREHQLSTEEYATYRTYVERGCQMLEGAGLSRAVMSVVQGHRERHNGSGFPQGIRGDRIPLLAKVAGIAEFFESLIAPRDDQDPMTPAKAVSLLYDMRNIEFQEDLVEAFIQGVGVYPTGTLVELSDGQRGIVVSHSPGRRLWPSVMVMQDAEHRPLKSARIVDLARHIESRAASELLTVRECLPHGTDGLDPAGFDVTGAESRWSLGKLINR
